Four variants from IntAct's records for PubMed 31515488 can be followed below.

B1: Tuftelin-interacting protein 11 (Homo sapiens), Q9UBB9 (parent)
chain: MSLSHLYRDGEGRIDDDDDERENFEITDWDLQNEFNPNRQRHWQTKEEATYGVWAERDSDDERPSFGGKRARDYSAPVNFISAGLKKGAAEEAELEDSDDEEKPVKQDDFPKDFGPRKLKTGGNFKPSQKGFAGGTKSFMDFGSWERHTKGIGQKLLQKMGYVPGRGLGKNAQGIINPIEAKQRKGKGAVGAYGSERTTQSMQDFPVVDSEEEAEEEFQKELSQWRKDPSGSKKKPKYSYKTVEELKAKGRISKKLTAPQKELSQVKVIDMTGREQKVYYSYSQISHKHNVPDDGLPLQSQQLPQSGKEAKAPGFALPELEHNLQLLIDLTEQEIIQNDRQLQYERDMVVNLFHELEKMTEVLDHEERVISNLSKVLEMVEECERRMQPDCSNPLTLDECARIFETLQDKYYEEYRMSDRVDLAVAIVYPLMKEYFKEWDPLKDCTYGTEIISKWKSLLENDQLLSHGGQDLSADAFHRLIWEVWMPFVRNIVTQWQPRNCDPMVDFLDSWVHIIPVWILDNILDQLIFPKLQKEVENWNPLTDTVPIHSWIHPWLPLMQARLEPLYSPIRSKLSSALQKWHPSDSSAKLILQPWKDVFTPGSWEAFMVKNIVPKLGMCLGELVINPHQQHMDAFYWVIDWEGMISVSSLVGLLEKHFFPKWLQVLCSWLSNSPNYEEITKWYLGWKSMFSDQVLAHPSVKDKFNEALDIMNRAVSSNVGAYMQPGARENIAYLTHTERRKDFQYEAMQERREAENMAQRGIGVAASSVPMNFKDLIETKAEEHNIVFMPVIGKRHEGKQLYTFGRIVIYIDRGVVFVQGEKTWVPTSLQSLIDMAK
B2: Isoform 1 of Nuclear RNA export factor 3 (Homo sapiens), Q9H4D5-1 (parent)
chain: MSLPSGHTTGHTDQVVQRRARCWDIYQRRFSSRSEPVNPGMHSSSHQQQDGDAAMHGAHMDSPVRYTPYTISPYNRKGSFRKQDQTHVNMEREQKPPERRMEGNMPDGTLGSWFKITVPFGIKYNEKWLLNLIQNECSVPFVPVEFHYENMHASFFVENASIAYALKNVSGKIWDEDNEKISIFVNPAGIPHFVHRELKSEKVEQIKLAMNQQCDVSQEALDIQRLPFYPDMVNRDTKMASNPRKCMAASLDVHEENIPTVMSAGEMDKWKGIEPGEKCADRSPVCTTFSDTSSNINSILELFPKLLCLDGQQSPRATLCGTEAHKRLPTCKGSFFGSEMLKNLVLQFLQQYYLIYDSGDRQGLLSAYHDEACFSLSIPFNPEDSAPSSFCKFFKDSRNIKILKDPYLRGELLKHTKLDIVDSLSALPKTQHDLSSFLVDMWYQTEWMLCFSVNGVFKEVEGQSQGSVLAFTRTFIATPGSSSSLCIVNDKLFVRDTSHQGTQSALFTLVPTAFSSSVPAFSQEQQKMLPS
partner: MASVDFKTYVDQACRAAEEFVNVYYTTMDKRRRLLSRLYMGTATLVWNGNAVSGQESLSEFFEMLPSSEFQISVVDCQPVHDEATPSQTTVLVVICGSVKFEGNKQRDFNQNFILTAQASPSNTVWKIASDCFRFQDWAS

Variants of B1 are the subject of one assay. As to conditions: with zmat2_human ZMAT2, Q96NC0.
Chain of zmat2_human ZMAT2, Q96NC0 (Q96NC0 whole entry): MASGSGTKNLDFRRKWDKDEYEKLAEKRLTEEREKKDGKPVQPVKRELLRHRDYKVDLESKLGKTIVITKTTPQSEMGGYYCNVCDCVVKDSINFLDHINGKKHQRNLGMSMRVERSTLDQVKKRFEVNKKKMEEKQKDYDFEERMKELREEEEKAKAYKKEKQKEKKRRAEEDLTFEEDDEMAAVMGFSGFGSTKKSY
In the case of R8Q, the “effect of a mutation on the interaction” value is recorded as “with no effect”.

S688L: the “effect of a mutation on the interaction” value is reported as “with no effect”.

The variants in another assay derive from B1. The note with it: with cox5b_human COX5B.
As to R8Q, the “effect of a mutation on the interaction” value is on record as “with no effect”.

As for S688L, the “effect of a mutation on the interaction” value is listed as “with no effect”.

Another assay covers variants of B1. The note with it: with txlna_human TXLNA.
In the case of R8Q, the “effect of a mutation on the interaction” value was “with no effect”.

As to S688L, the “effect of a mutation on the interaction” value is “with no effect”.

Variants of B1 are the subject of another assay. As to conditions: with hook1_human HOOK1, Q9UJC3.
With R8Q, the “effect of a mutation on the interaction” value is “with no effect”.

Consider S688L, for which the “effect of a mutation on the interaction” value is “with no effect”.

Variants of B1 are the subject of another assay. The note with it: with tnnt1_human TNNT1, P13805.
Chain of tnnt1_human TNNT1, P13805 (P13805 whole entry): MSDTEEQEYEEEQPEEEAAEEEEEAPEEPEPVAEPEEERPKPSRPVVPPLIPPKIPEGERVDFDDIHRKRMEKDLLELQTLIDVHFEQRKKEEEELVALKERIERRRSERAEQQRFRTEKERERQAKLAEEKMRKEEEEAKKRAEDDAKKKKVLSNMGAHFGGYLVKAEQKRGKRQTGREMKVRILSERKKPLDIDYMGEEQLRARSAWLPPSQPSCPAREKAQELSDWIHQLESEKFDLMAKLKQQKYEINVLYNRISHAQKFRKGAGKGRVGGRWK
For the variant R8Q, the “effect of a mutation on the interaction” value is given as “with no effect”.

For S688L, the “effect of a mutation on the interaction” value was “with no effect”.

Variants of B1 are the subject of a further assay. As to conditions: with coq8a_human COQ8A.
For R8Q, the “effect of a mutation on the interaction” value is reported as “with no effect”.

Regarding S688L, the “effect of a mutation on the interaction” value is recorded as “with no effect”.

The next assay covers variants of B1. The note with it: with smce1_human SMARCE1, Q969G3.
Chain of smce1_human SMARCE1, Q969G3 (Q969G3 whole entry): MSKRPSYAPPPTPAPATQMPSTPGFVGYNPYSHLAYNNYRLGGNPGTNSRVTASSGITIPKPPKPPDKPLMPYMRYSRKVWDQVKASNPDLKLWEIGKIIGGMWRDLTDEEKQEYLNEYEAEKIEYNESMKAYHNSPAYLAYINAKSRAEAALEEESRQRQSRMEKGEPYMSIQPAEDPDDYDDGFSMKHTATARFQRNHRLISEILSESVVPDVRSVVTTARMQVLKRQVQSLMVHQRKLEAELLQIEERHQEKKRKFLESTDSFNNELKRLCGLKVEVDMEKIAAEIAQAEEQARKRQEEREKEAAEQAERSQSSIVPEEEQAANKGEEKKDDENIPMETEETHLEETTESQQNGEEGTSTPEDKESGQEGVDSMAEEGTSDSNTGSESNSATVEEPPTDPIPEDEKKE
For R8Q, the “effect of a mutation on the interaction” value is listed as “with no effect”.

Consider S688L, for which the “effect of a mutation on the interaction” value is “with no effect”.

Variants of B1 are the subject of a further assay. The note with it: with bmf_human BMF.
For R8Q, the “effect of a mutation on the interaction” value is given as “with no effect”.

In the case of S688L, the “effect of a mutation on the interaction” value is reported as “with no effect”.

Variants of B1 are the subject of another assay. The note with it: with fa13c_human FAM13C.
On to R8Q, for which the “effect of a mutation on the interaction” value is reported as “with no effect”.

As to S688L, the “effect of a mutation on the interaction” value is listed as “with no effect”.

The variants in the next assay derive from B1. As to conditions: with prp31_human PRPF31, Q8WWY3.
Chain of prp31_human PRPF31, Q8WWY3 (Q8WWY3 whole entry): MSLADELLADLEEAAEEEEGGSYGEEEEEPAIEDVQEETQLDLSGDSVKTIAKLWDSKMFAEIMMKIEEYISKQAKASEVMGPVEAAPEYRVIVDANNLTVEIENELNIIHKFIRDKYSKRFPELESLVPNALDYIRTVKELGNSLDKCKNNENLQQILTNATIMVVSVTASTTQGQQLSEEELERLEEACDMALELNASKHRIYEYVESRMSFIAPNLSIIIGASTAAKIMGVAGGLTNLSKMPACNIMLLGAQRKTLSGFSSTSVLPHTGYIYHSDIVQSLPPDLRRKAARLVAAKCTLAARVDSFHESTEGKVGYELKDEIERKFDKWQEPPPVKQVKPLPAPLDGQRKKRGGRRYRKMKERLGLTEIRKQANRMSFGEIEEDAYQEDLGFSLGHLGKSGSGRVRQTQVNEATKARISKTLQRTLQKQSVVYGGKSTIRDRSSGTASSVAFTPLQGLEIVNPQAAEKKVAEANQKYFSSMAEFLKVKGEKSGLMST
In the case of R8Q, the “effect of a mutation on the interaction” value is “with no effect”.

S688L: the “effect of a mutation on the interaction” value was “with no effect”.

Variants of B1 are the subject of another assay. The note with it: with snw1_human SNW1, Q13573.
Chain of snw1_human SNW1, Q13573 (Q13573 whole entry): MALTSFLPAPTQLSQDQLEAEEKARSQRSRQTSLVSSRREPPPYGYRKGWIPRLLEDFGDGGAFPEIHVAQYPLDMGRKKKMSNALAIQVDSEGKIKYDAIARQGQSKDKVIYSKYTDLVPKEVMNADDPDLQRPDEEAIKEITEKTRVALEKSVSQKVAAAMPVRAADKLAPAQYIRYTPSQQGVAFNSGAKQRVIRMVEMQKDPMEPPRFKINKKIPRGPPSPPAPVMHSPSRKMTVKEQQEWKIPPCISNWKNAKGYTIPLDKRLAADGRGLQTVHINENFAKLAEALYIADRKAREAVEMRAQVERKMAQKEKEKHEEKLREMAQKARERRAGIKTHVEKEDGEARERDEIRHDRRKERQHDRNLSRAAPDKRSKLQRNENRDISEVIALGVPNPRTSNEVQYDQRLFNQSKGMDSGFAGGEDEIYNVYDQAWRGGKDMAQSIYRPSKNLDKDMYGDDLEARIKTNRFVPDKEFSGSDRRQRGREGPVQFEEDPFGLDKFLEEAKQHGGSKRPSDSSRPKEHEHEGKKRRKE
On to R8Q, for which the “effect of a mutation on the interaction” value was “with no effect”.

For S688L, the “effect of a mutation on the interaction” value is given as “with no effect”.

The next assay covers variants of B1. The note with it: with sfr1_human SFR1, Q86XK3.
Chain of sfr1_human SFR1, Q86XK3 (Q86XK3 whole entry): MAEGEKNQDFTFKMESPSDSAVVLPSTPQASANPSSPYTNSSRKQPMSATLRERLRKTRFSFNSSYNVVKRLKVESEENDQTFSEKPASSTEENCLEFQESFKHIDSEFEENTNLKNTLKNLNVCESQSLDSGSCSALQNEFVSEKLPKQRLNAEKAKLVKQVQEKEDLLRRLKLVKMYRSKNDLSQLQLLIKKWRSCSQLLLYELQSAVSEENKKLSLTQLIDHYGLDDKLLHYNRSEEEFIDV
Consider R8Q, for which the “effect of a mutation on the interaction” value is reported as “with no effect”.

For S688L, the “effect of a mutation on the interaction” value was “with no effect”.

The variants in the next assay derive from B1. The note with it: with zfy26_human ZFYVE26, Q68DK2.
Chain of zfy26_human ZFYVE26, Q68DK2 (Q68DK2 whole entry): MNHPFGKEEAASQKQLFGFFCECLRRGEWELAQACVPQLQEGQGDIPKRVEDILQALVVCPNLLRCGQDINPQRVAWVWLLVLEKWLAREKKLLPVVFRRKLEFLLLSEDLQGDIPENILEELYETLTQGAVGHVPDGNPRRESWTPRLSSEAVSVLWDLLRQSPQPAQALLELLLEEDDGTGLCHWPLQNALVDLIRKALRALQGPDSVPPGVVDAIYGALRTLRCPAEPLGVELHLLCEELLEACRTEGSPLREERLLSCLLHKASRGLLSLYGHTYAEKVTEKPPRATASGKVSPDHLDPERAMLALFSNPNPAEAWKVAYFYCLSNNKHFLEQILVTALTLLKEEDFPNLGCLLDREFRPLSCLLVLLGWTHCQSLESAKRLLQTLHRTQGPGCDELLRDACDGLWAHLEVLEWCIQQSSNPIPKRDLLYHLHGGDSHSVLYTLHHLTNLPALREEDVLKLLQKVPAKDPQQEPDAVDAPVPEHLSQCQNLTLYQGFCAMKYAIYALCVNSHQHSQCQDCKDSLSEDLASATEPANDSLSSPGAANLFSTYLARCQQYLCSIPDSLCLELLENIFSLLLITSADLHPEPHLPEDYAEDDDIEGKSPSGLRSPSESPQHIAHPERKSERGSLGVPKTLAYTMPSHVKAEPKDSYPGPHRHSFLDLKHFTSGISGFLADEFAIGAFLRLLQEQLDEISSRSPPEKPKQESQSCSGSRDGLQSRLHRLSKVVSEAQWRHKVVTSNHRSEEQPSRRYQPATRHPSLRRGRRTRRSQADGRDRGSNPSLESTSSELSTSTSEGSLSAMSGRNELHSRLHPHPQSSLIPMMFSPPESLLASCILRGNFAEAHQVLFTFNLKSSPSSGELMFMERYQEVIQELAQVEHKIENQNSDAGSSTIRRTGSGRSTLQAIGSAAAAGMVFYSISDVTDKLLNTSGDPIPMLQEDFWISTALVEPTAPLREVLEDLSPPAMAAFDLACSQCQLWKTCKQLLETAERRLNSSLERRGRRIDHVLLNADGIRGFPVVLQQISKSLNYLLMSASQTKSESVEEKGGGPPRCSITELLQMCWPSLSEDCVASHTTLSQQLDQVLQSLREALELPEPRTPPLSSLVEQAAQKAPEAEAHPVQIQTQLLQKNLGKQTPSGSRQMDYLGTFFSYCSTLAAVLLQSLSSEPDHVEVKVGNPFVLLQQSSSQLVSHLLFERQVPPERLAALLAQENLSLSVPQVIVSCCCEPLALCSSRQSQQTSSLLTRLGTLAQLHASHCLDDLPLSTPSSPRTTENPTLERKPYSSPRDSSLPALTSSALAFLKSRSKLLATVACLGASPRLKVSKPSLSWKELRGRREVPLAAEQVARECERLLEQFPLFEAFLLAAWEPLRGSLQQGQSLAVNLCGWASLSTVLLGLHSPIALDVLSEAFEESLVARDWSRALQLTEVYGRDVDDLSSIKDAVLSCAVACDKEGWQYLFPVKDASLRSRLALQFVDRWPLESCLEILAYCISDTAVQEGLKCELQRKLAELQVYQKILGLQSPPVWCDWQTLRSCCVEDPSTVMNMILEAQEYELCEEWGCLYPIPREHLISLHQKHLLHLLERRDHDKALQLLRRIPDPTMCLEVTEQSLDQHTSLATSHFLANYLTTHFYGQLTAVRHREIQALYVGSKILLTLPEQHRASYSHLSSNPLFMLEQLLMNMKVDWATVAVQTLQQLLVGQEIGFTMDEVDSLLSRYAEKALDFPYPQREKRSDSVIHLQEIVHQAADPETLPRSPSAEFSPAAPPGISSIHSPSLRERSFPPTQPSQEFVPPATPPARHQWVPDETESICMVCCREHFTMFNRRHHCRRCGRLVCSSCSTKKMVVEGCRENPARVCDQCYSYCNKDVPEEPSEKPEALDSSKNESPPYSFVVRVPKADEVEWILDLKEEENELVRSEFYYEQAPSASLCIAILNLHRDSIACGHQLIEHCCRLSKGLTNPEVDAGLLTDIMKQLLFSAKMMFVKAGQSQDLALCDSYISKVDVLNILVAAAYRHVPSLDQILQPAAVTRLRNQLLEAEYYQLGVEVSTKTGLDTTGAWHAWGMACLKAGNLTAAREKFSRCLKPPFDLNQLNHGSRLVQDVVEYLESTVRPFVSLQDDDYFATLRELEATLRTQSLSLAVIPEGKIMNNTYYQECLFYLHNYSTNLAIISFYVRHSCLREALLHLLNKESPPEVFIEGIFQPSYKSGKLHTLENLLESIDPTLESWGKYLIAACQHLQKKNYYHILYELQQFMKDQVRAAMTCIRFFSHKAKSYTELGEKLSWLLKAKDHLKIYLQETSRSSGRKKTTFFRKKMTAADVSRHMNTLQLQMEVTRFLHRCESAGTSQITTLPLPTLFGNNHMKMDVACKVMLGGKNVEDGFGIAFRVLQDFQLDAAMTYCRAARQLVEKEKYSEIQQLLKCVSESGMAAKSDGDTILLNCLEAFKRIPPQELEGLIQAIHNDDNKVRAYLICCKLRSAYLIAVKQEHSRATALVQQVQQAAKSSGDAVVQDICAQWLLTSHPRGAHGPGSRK
With R8Q, the “effect of a mutation on the interaction” value was “with no effect”.

With S688L, the “effect of a mutation on the interaction” value is “with no effect”.

Another assay covers variants of B1. The note with it: with abi2_human ABI2, Q9NYB9.
Turning to R8Q, the “effect of a mutation on the interaction” value is on record as “with no effect”.

Consider S688L, for which the “effect of a mutation on the interaction” value is on record as “with no effect”.

In another assay the parent is B1. The note with it: with cc121_human CCDC121, Q6ZUS5.
Chain of cc121_human CCDC121, Q6ZUS5 (Q6ZUS5 whole entry): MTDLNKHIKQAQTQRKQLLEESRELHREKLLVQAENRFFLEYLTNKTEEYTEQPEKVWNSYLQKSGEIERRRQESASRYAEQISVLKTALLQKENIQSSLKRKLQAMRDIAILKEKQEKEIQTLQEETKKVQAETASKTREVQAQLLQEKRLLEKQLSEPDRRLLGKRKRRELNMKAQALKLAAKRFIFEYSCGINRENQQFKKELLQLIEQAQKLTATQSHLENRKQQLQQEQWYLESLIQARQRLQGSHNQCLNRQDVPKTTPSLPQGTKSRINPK
As to R8Q, the “effect of a mutation on the interaction” value is “with no effect”.

For S688L, the “effect of a mutation on the interaction” value is on record as “with no effect”.

Another assay covers variants of B1. The note with it: with KRT6A.
With R8Q, the “effect of a mutation on the interaction” value was “with no effect”.

S688L: the “effect of a mutation on the interaction” value was “with no effect”.

Another assay covers variants of B2. As to conditions: with nxt1_human NXT1, Q9UKK6.
T9K: the “effect of a mutation on the interaction” value is “with no effect”.

In a further assay the parent is B2. The note with it: with nxt1_human NXT1, Q9UKK6. This is another data set of the same source.
As for R409W, the “effect of a mutation on the interaction” value is recorded as “disrupting interaction strength”.
